# Experimental data reported in patent US20060008800A1 (published 2006).
# Key:
# Ca2+/Calmodulin = Ca2+/Calmodulin (UniProt P0DP23 2-149); test: tryptophane fluorescence, 10 µM peptide, equimolar Calmodulin, excess calcium
# [1] = target: Apocalmodulin (Calcium-free Calmodulin) (UniProt P0DP23 2-149); test: tryptophane fluorescence, 10 µM peptide, equimolar Apocalmodulin, 1 mM EGTA
binder,measurement,setting,value
CRAKANWLRAFNKVRMQLQEAR (Synthesized and purified by standard procedures; used at 10 uM in the tryptophane fluorescence assay; also called peptide 13-1; Munc13-1 derived peptide) [Munc13-1 peptide reflecting the Calmodulin binding site of rat Munc13-1],binding result,Ca2+/Calmodulin,binds
same,binding result,[1],binds
